From paper PMC6153294 (The Journal of Biological Chemistry, 2018)

Target: T1, recombinant FGFR1c extracellular domain protein (Homo sapiens, UniProt P11362)
T1 construct: FGF receptor 1, 'c' splice isoform, human, extracellular domain; also called human FGFR1c
Experiment: SPR; kinetic-binding assay on Biacore T200: His-tagged human β-Klotho and FGFR1c captured (about 40 RU and 60 RU) on immobilised mouse anti-His antibody (CM5); 39F7 (100 nM) and FGF21 (500 nM) injected in PBS, 0.1 mg/ml BSA, 0.005% Surfactant P20
Details: both partners purified

T1 sequence (P11362 22-376): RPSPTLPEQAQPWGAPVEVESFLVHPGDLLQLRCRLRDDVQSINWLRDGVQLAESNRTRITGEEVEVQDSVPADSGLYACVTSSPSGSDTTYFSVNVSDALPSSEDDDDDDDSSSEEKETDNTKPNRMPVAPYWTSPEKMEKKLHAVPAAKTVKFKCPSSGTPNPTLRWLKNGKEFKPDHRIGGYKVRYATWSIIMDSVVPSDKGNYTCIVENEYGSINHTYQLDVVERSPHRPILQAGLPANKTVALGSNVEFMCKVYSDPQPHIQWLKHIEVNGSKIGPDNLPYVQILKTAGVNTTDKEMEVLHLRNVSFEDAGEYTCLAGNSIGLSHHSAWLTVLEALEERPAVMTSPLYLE

binding result: no binding (tested: 100 nM)
B1: 39F7 agonistic monoclonal antibody against β-Klotho (full IgG) (antibody, V domains shown)
VH: QVQLVESGGGVVQPGRSLRLSCAASGFTFSNYGIHWVRQAPGKGLEWVAVIWYDGSIKYYADSVKGRFTISRDNSKNTLYLQMNSLRAEDTAVYYCARDRAAAGLHYYYGMDVWGQGTTVTVSS
VL: not shown
notes: Identified from an immunisation campaign in XenoMouse with a complex of β-Klotho and FGFR1c; also called mAb 39F7; 39F7 IgG; copies: 2 + 2
